According to patent US20070292907:

Test system: bovine 19S complex (PA700)

USP14-ΔUBL (91-494) (purified recombinant, activation assay)
activity toward UbVS (anti-ubiquitin immunoblot): showed extremely low activity toward UbYS, both in the absence and presence of the 19S regulatory particle
